In the supplement of paper PMC12042874:
± gives the uncertainty stated by the source.

Experiment: amyloid nucleation score (Sup35N fusion, yeast selection) (log enrichment); library NNK3; higher = more nucleation; inactive = no reads after selection
Procedure, shortened: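 Peptides of 20 random codons fused to Sup35N were expressed in psi-negative yeast, induced 24 hours with 100 μM copper sulfate, then grown 7 days at 30°C on medium lacking adenine and uracil. Input and output plasmid inserts were Illumina-sequenced. Nucleation score is the DiMSum log enrichment of output over input reads, centred on the mode score of non-aggregating sequences, excluding sequences with under 100 input reads. Random libraries had three technical output replicates.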

FIWSAGGIITSHNCLYWQAS
amyloid nucleation score: inactive

FKLHCSDRYECTKDLSHLWC
amyloid nucleation score: inactive

FKLHIWSS
amyloid nucleation score: inactive

FKNCHGVVTRCQW
amyloid nucleation score: inactive

FKPWLYFGRPMAQLRDDCQV
amyloid nucleation score: inactive

FKQIVKTSFNLCFFIRCKRT
amyloid nucleation score: inactive

FKRCSSIVRGWSS
amyloid nucleation score: inactive

FKTCPKCSSSCCIFICPCSV
amyloid nucleation score: 0.753 ± 0.25

FKVWCVLSADIQF
amyloid nucleation score: inactive

FLCSTSLFVLVLMLTLTNTP
amyloid nucleation score: inactive

FLFIHKLTCLSLVKWTGFLV
amyloid nucleation score: inactive

FLFRNLVAWFMHSDLFFYGV
amyloid nucleation score: inactive

FLGDSTNGRRFFSEFRSEWG
amyloid nucleation score: 0.964 ± 0.17

FLGFEYILIAFRVGQYYLTG
amyloid nucleation score: inactive

FLGTHEGTDRLLWCVIEEKG
amyloid nucleation score: inactive

FLIDDMYWSVMDTWI
amyloid nucleation score: inactive

FLILVGLGRIDLMGTIIKKR
amyloid nucleation score: inactive

FLINPFVWFNNYSFTAF
amyloid nucleation score: 0.929 ± 0.14

FLIPYKRQIAQRRYVSLE
amyloid nucleation score: inactive

FLLRYWYKAVDSRHRYSQLI
amyloid nucleation score: inactive

FLLSVNQASNYGTWILWFYR
amyloid nucleation score: inactive

FLLVLWSVFLTGT
amyloid nucleation score: inactive

FLLVSLAA
amyloid nucleation score: inactive

FLLVTSRSEEAPLATETYRL
amyloid nucleation score: inactive

FLNVKIQNHWRPYPFSPEYA
amyloid nucleation score: 1.16 ± 0.092

FLQAAYSGSRVAKCVSESSK
amyloid nucleation score: inactive

FLRLHLFHSWTISLSSYRSV
amyloid nucleation score: inactive

FLSCCKGCLCCCQRPLSIYY
amyloid nucleation score: inactive

FLSDSNT
amyloid nucleation score: inactive

FLSSCKLMGFMS
amyloid nucleation score: inactive

FLTDRPYRGCG
amyloid nucleation score: inactive

FLTRFRDPT
amyloid nucleation score: -0.589 ± 0.9

FLVNDYFV
amyloid nucleation score: inactive

FLVPTLHYYLGRWQKKPMLY
amyloid nucleation score: inactive

FLVRRGCP
amyloid nucleation score: inactive

FLVTYKISWRYKSQQLCSYY
amyloid nucleation score: inactive

FLWLYQDCVV
amyloid nucleation score: inactive

FLWSLLYIFIVCGFCNPSRR
amyloid nucleation score: inactive

FLYWVGSFEAEPV
amyloid nucleation score: inactive

FMKSRINIRIALWCF
amyloid nucleation score: inactive

FMLNVVDY
amyloid nucleation score: inactive

FMMMYDCNLDCFRHSIEI
amyloid nucleation score: inactive

FMPPFASN
amyloid nucleation score: inactive

FMTLMVTLYLRLYSRSYGPQ
amyloid nucleation score: inactive

FMVSRMYEWCVCSVQCLMLF
amyloid nucleation score: inactive

FMWCYMKYCAVHAFDLSWKV
amyloid nucleation score: inactive

FNANINNNGIRFRREVNLCW
amyloid nucleation score: inactive

FNDYCSIKKSLTKSMYDLNG
amyloid nucleation score: inactive

FNERIRTNLFDSWTMWGMCF
amyloid nucleation score: inactive

FNETFYGKVGDILISLCRVL
amyloid nucleation score: inactive

FNKNTDRGI
amyloid nucleation score: inactive

FNLQL
amyloid nucleation score: 0.325 ± 0.57

FNSAHDQAAQVRHLHVNVFL
amyloid nucleation score: 3 ± 0.064

FNSKTLKLTFFMVVPEYCWW
amyloid nucleation score: inactive

FNSMYRVELVHCCSHNKICD
amyloid nucleation score: 1.41 ± 0.1

FNTPDRAPLLATCAVHANLH
amyloid nucleation score: inactive

FPDTALLGCNCLFCLEGDGL
amyloid nucleation score: inactive

FPELSGDYLVIRMTVQFWSV
amyloid nucleation score: inactive

FPGCSRENLTVGLSVTRTEG
amyloid nucleation score: inactive

FPGVLSLRYYLLRMRTQ
amyloid nucleation score: inactive

FPYVLVSTPVSPPICW
amyloid nucleation score: inactive

FQFNILNSVSGLCICYDSGH
amyloid nucleation score: 3.41 ± 0.081

FQRVCYHVWSTKN
amyloid nucleation score: inactive

FQVEKQF
amyloid nucleation score: inactive

FRLLLSKMAYFRADMTYDDF
amyloid nucleation score: inactive

FRNRGLNSNMNYSSFNVQSM
amyloid nucleation score: -0.124 ± 0.52

FRNSGTNACIL
amyloid nucleation score: inactive

FRNWIWVLYEV
amyloid nucleation score: inactive

FRRSVK
amyloid nucleation score: inactive

FRSGSIDCSKLWILFY
amyloid nucleation score: inactive

FRSVVWFCGRVLQTGCCGLN
amyloid nucleation score: inactive

FRVKFIMCRHLSPNV
amyloid nucleation score: 0.682 ± 0.2

FRVNKRHQYEEHVLLENLVF
amyloid nucleation score: inactive

FSASSISDKIFSMEYCTTWV
amyloid nucleation score: inactive

FSCSNSLTMVFVEDFNHATY
amyloid nucleation score: inactive

FSDRRSINPELEF
amyloid nucleation score: inactive

FSFQQSWVSY
amyloid nucleation score: inactive

FSGGCSVYSMQLFLS
amyloid nucleation score: 1.43 ± 0.11

FSMSWTVDMKE
amyloid nucleation score: inactive

FSPVSQYWMKGFTYTGNRAR
amyloid nucleation score: inactive

FSQIPRYISNTKRWLWDYVN
amyloid nucleation score: inactive

FSRLFCNSALCIMRFVNTSS
amyloid nucleation score: 1.52 ± 0.088

FSVDYQHRCQGQYPYIWYSN
amyloid nucleation score: inactive

FSWRCCFHKNNDCAKTILMF
amyloid nucleation score: inactive

FSYAFWVKIIIVFRRFITRK
amyloid nucleation score: inactive

FTLFIQVV
amyloid nucleation score: inactive

FTMASLRIKDIFWLLTNLTW
amyloid nucleation score: inactive

FTNNCYHLAMY
amyloid nucleation score: -0.456 ± 0.74

FTQSTCSSHSVLFLMDVTRG
amyloid nucleation score: inactive

FTSGTMVFTRLFRSNQQWWS
amyloid nucleation score: 1.53 ± 0.13

FTSNAESTLWTRPRNYRNVS
amyloid nucleation score: inactive

FTSVMKNNV
amyloid nucleation score: inactive

FTWRRFRVKSYYDYFASLGV
amyloid nucleation score: inactive

FVAHCWQSIY
amyloid nucleation score: inactive

FVASHLVVAKGVKASVRKFY
amyloid nucleation score: 1.31 ± 0.089

FVDGVSYGTGTSSYKRTELY
amyloid nucleation score: inactive

FVDLIRLCMCFVRMSQSLRT
amyloid nucleation score: inactive

FVIVYAMCKLYLMEKMRLIS
amyloid nucleation score: inactive

FVLVHSFLECHYIHVTTERL
amyloid nucleation score: inactive

FVNVKFQTLCNYIWCTSPYE
amyloid nucleation score: 2.9 ± 0.06

FVRDRFTIMFEWIAVLRLEL
amyloid nucleation score: inactive

FVRVALMYFVLKLTSRYKRN
amyloid nucleation score: inactive

FVSIWEHNSIVRRCGVRLDR
amyloid nucleation score: inactive

FVSRGKLLPNAPGFMWFLLR
amyloid nucleation score: -0.533 ± 1.9

FVVIAYTEDTGDYRMVLTQW
amyloid nucleation score: inactive

FVVSLQYMCQSRYISPCTPI
amyloid nucleation score: inactive

FVYQYYV
amyloid nucleation score: inactive

FWFHLADMVECKCIDVLYYL
amyloid nucleation score: inactive

FWFYATLMGEQDK
amyloid nucleation score: -0.331 ± 0.9

FWKCWAVPDVCFYVWRSGCF
amyloid nucleation score: inactive

FWLRNHFHSIAGICMFVGYW
amyloid nucleation score: inactive

FWLSHQNDDVYTFMPLSCSS
amyloid nucleation score: inactive

FWSDFYPHVLIRWFRSMVRS
amyloid nucleation score: inactive

FWTCTSSPVLMRWRRSGFNV
amyloid nucleation score: inactive

FWTSLPFVGHNNISCRLPTP
amyloid nucleation score: inactive

FYFDARRSITLSNSNVVKLW
amyloid nucleation score: 1.93 ± 0.08

FYITFFECD
amyloid nucleation score: inactive

FYIYP
amyloid nucleation score: inactive

FYIYWLFPIIVSFDYVFSGL
amyloid nucleation score: inactive

FYKMVGVRYGC
amyloid nucleation score: inactive

FYKRLSMSMIWFLLYLCTDM
amyloid nucleation score: inactive

FYLFIVVRMVVLVTDVIVVG
amyloid nucleation score: inactive

FYLKLMSLVMSMDIMLTSLC
amyloid nucleation score: inactive

FYMSNDCP
amyloid nucleation score: inactive

FYSIPMLRLVVNNVLKLTAI
amyloid nucleation score: inactive

FYSLNSFSFYASRVITDNRV
amyloid nucleation score: 1.09 ± 0.13

FYSSACVRPVVRYCCVMCDS
amyloid nucleation score: inactive

FYVLHPCAPFVFPHQTTNIT
amyloid nucleation score: inactive

FYVNPITEGMA
amyloid nucleation score: inactive

FYWGAFNPYFVLIGILAYYT
amyloid nucleation score: inactive

FYYNVRLRRAGWAYRITWTT
amyloid nucleation score: inactive

FYYRSFCRNGRRH
amyloid nucleation score: inactive

GAFSYEVFPTGRPLFKTGGH
amyloid nucleation score: inactive

GAHFWKNGVGRWLPRNC
amyloid nucleation score: inactive

GALSYKSKSWRS
amyloid nucleation score: inactive

GAQSSTEIAQFYKNGMTSNQ
amyloid nucleation score: inactive

GASMLGAIKGYSTSERISLD
amyloid nucleation score: 0.175 ± 0.45

GAYSDMTNKIWVPDNLLLL
amyloid nucleation score: inactive

GAYVKPNEWCEGFENSSFEV
amyloid nucleation score: inactive

GCARLAIMSKLPSCW
amyloid nucleation score: inactive

GCERMFIMVYSL
amyloid nucleation score: inactive

GCFILLNWVMQGKLAYTSLI
amyloid nucleation score: inactive

GCFLNNMLIGF
amyloid nucleation score: inactive

GCFVNN
amyloid nucleation score: inactive

GCKRVVTTV
amyloid nucleation score: -0.606 ± 0.93

GCKWWYSVFREWKSPLSGGV
amyloid nucleation score: inactive

GCKYSATTAHCADKSVPVTG
amyloid nucleation score: inactive

GCLQTIADWFNFSNMN
amyloid nucleation score: inactive

GCNEHI
amyloid nucleation score: inactive

GCNYTVSTYILRVSDFTYYM
amyloid nucleation score: -0.585 ± 0.76

GCRLPSWMYLVGELISFLSG
amyloid nucleation score: inactive

GCSTINALCGHLDVVVCIAG
amyloid nucleation score: 1.64 ± 0.094

GCYIVM
amyloid nucleation score: inactive

GCYWSRLGVDHRMPMFIARD
amyloid nucleation score: inactive

GDLVLASAGYLVFGYLL
amyloid nucleation score: inactive

GDTRF
amyloid nucleation score: inactive

GEDIL
amyloid nucleation score: inactive

GENIEYMF
amyloid nucleation score: 0.025 ± 0.31
